Columns and labels:
PDE6D (Homo sapiens) = PDE6D (Homo sapiens) (UniProt O43924); conditions: cited from earlier work
[1] = biological target: HRAS peptide, …(OMe)-farnesyl; experiment: ITC; PDE6D (100-300 μM) in the syringe, peptides (10-30 μM) in the cell; 25 °C; 10 mM Tris pH 7.5, 150 mM NaCl, 2 mM DTT, 5% DMSO
[2] = biological target: KRAS WT peptide, …(OMe)-farnesyl; experiment: as above

Sequence of INPP5E (Q9NRR6 1-641): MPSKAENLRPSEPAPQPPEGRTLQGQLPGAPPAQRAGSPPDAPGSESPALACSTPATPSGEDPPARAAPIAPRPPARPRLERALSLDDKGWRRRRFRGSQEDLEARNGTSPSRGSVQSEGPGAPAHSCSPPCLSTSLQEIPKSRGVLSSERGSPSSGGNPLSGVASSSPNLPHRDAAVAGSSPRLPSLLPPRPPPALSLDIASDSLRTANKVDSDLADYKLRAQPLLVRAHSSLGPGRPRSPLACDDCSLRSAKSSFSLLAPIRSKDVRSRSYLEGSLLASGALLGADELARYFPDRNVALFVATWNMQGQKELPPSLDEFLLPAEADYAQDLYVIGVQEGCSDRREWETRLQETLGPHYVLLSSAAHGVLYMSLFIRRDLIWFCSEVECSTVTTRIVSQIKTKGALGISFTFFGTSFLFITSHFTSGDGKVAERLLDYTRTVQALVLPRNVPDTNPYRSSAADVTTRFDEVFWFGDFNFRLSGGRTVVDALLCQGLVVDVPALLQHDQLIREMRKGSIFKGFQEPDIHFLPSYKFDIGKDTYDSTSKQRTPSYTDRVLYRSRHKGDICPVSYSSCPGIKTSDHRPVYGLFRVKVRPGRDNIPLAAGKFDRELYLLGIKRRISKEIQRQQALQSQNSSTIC

Row | Substance | Kd (PDE6D (Homo sapiens)) [nM] | Kd [1] [nM] | Kd [2] [nM]
1 | INPP5E (from UniProt Q9NRR6) | 10 |  | 
2 | PDE6D (phosphodiesterase 6 delta), wild type, polyhistidine tag removed (from UniProt O43924 1-150) (natural protein) |  | 2700 | 1300

— PMC8842248
